Patent US11807881B2, “Polypeptide, fusion polypeptide, and antibiotic against gram-negative bacteria comprising same” (priority 2020, dated 2023)

Columns and labels:
Type in all cases: cell-based
gram negative bacterium = experiment: CFU reduction evaluation on various gram negative bacterium
Method: For this, Endolysin LNT101 and LNT102 at a concentration of 2 μM and each 1×10^6 CFU of Pseudomonas aeruginosa (PA01; ATCC 15692), Acinetobacter baumannii (ATCC 17978), Escherichia coli (ATCC 8739), Klebsiella pneumoniae (ATCC 13883), Enterobacter aerogenes (CCARM 16006), and Salmonella enteritidis (ATCC 13076) was added in reaction buffer (20 mM Tris-Cl, pH 7.5) so that the final volume was 200 μl, and it was left at 37° C. for 2 hours. In 2 hours, the number of colonies of each gram negative bacterium was confirmed, and the result was shown in FIG. 8 (in FIG. 8, PA90 represents endolysin LNT101 and mtPA90 represents endolysin LNT102, respectively).
The endolysin LNT102 at a concentration of 0.1, 0.5, 2.5 μM, and each 1×10^6 CFU of Pseudomonas aeruginosa, Acinetobacter baumannii, and Escherichia coli was added in reaction buffer (20 mM Tris-Cl, pH 7.5) so that the final volume was 200 μl, and it was left at 37° C. for 2 hours.
(§1) In order to confirm the killing ability against gram negative bacterium of the fusion polypeptide LNT103 prepared in Example 3.2, CFU reduction evaluation was performed for various gram negative bacterium. In order to perform the CFU reduction evaluation, 2 μM of each of LNT101, LNT102, and LNT103 prepared in Example 3, and 1×10^6 CFU of each of Pseudomonas aeruginosa (PA01; ATCC 15692), Acinetobacter baumannii (ATCC 17978), Escherichia coli (ATCC 8739), Klebsiella pneumoniae (ATCC 13883), and Enterobacter aerogenes (CCARM 16006) were added to reaction buffer (20 mM Tris-Cl, pH7.5) so that the final volume was 200 μl, and it was left at 37° C. for 2 hours. After that, the number of the colonies of each gram negative bacterium was confirmed to compare and evaluate the antibiotic effect of each polypeptide. As a control group, the PBS treatment group (treating PBS in the same volume as the fusion polypeptide) was used.
In addition, the same test was performed by using the fusion polypeptide LNT103, and CecA-LNT101 at a concentration of 2 μM, and the result was shown in FIG. 15. For comparison, the same test was performed for groups treated with LNT102 or PBS.
On the other hand, in order to compare the antibacterial activity in case that a protein other than endolysin (LNT102 or LNT101) was fused to Cecropin A, the killing ability against gram negative bacterium of the fusion polypeptide LNT103 and cecropin A-EGFP fusion protein (a protein in which EGFP (GenBank Accession No. AAB02572.1) having no endolysin activity by replacing LNT102 in LNT103) was evaluated. For this, the proteins were treated in an amount of 0.2 μM or 2 μM, respectively, to perform the CFU reduction test. […] In particular, it could be confirmed that the CFU Counting result for all the tested gram negative bacterium killed all bacterium treated with 0, when LNT103 2 μM was treated.
Furthermore, the killing ability against gram negative bacterium according to the concentration and/or treatment time of the fusion polypeptide LNT103 was tested. Specifically, the fusion polypeptide LNT103 at a concentration of 0.1, 0.3, 0.9, or 2.7 μM and 1×10^6 CFU of Pseudomonas aeruginosa (PA01; ATCC 15692) or Acinetobacter baumannii (ATCC 19606) were added to reaction buffer (20 mM Tris-Cl, pH7.5) so that the final volume was 200 μl, and it was left at 37° C. for 2 hours, and then the number of the colonies was confirmed, and the result was shown in A of FIG. 17.
In addition, the fusion polypeptide LNT103 at a concentration of 2 μM and 1×10^6 CFU of Pseudomonas aeruginosa (PA01; ATCC 15692) were added to reaction buffer (20 mM pH7.5) so that the final volume was 200 μl, and in 0, 20 minutes, 40 minutes and 60 minutes at 37° C., the number of the colonies was confirmed, and the result was shown in B of FIG. 17. […]

Acinetobacter baumannii = experiment: CFU reduction test
Method: In addition, that the LNT101 endolysin had the antibacterial ability in various gram negative bacterium was confirmed by a CFU reduction test, and the result was shown in Table 2 below.
as §1

A. baumannii = experiment: MIC and MBC, broth microdilution in CAA media
Method: In addition, MIC (Minimal Inhibitory Concentration) and MBC (Minimal Bactericidal Concentration) of the fusion polypeptide LNT103 were measured. […] Specifically, the LNT103 was treated at a concentration of 64 μg/ml to a 96 well microplate row A, and the LNT103 was treated at a concentration where serial dilution was performed by ½ in rows B-G. To the row H, LNT103 was not treated. After that, the corresponding bacterium strain (type or QC, CCARM and clinical separation strain; See Tables 2-4) was treated in an amount of 5×10^5 CFU/ml, total 100 μl in all wells. Then, it was cultured at 37° C. for 18 hours. MIC was determined to be the lowest concentration at which no colonies were identified by confirming the number of the colonies in each well.

[1] = A. baumannii 643(Kyungpook National University)
[2] = A. baumannii 3680(Gyeongsang National University)

B1: LNT103: fusion polypeptide [Cecropin A]-[linker (GSGSGS)]-[endolysin LNT102]; SEQ ID NO: 15 (MAS, His tag) used in the tests (protein)
chain: MASKWKLFKKIEKVGQNIRDGIIKAGPAVAVVGQATQIAKGSGSGSMGTVLKRGDRGSAVEDLQMKLNVAGYNLSADGIFGGDTEKAVRDVQAGAGLVVDGKVGPKTLYAIAKSATVPAKWEAIPFPTANKSRSAAMPTLNAVGAMTGVDSRLLATFASIESAFDYTVKAKTSSATGWFQFLDATWDDMIKAYGSKYGIPKDPTRALRKDPRANALMGAEFIKGNAAVLRPVINREPSDTDLYLAHFLGAGGAKKFLSADQKTLGEVLFPKPAKANPSIFSNKGVPRTLAEIYKLFEDKVSKHRALEHHHHHH
modifications: synthetic_Fusion Polypeptide LNT103 with MAS, His tag, and extra sequence
Gram negative bacterium; 0.2 μM or 2 μM (FIG. 16)
  antibacterial activity (CFU reduction test): had excellent antibacterial activity
Gram negative bacterium; 2 μM, 2 hours, 37° C., 1×10^6 CFU of each gram negative bacterium
  CFU reduction effect compared to LNT101 and LNT102: 1.5˜5.5 log CFU/ml
Gram negative bacterium; 2 μM, all the tested bacterium (FIG. 15)
  counting result: 0 log CFU/ml
Gram negative bacterium; LNT103 2 μM, all the tested gram negative bacterium (FIG. 16)
  CFU Counting result: 0
Gram negative bacterium; P. aeruginosa PA01 and A. baumannii ATCC 19606, 0.1-2.7 μM 2 hours, 2 μM 0-60 minutes, 1 μM 0-10 minutes
  killing ability (number of colonies): had the killing ability against gram negative bacterium in a concentration and time-dependent manner
Acinetobacter baumannii; Acinetobacter baumannii (ATCC 19606, ATCC 17978), 2 μM, 2 hours
  CFU Counting result: 0 log CFU/ml
A. baumannii; [1]
  MBC: 16 µg/mL
  MIC: 8 µg/mL
A. baumannii; [2]
  MBC: 8 µg/mL
  MIC: 8 µg/mL
A. baumannii; A. baumannii ATCC 17978
  MBC: 8 µg/mL
  MIC: 8 µg/mL
A. baumannii; A. baumannii ATCT 19606
  MBC: 8 µg/mL
  MIC: 8 µg/mL
A. baumannii; A. baumannii CCARM 12001
  MBC: 8 µg/mL
  MIC: 8 µg/mL
A. baumannii; A. baumannii CCARM 12015
  MBC: 16 µg/mL
  MIC: 16 µg/mL
A. baumannii; A. baumannii CCARM 12026
  MBC: 8 µg/mL
  MIC: 8 µg/mL
A. baumannii; A. baumannii CCARM 12035
  MBC: 8 µg/mL
  MIC: 8 µg/mL
A. baumannii; A. baumannii CCARM 12202
  MBC: 8 µg/mL
  MIC: 8 µg/mL
A. baumannii; A. baumannii F4
  MBC: 16 µg/mL
  MIC: 16 µg/mL
A. baumannii; A. baumannii F15
  MBC: 8 µg/mL
  MIC: 8 µg/mL
A. baumannii; A. baumannii F65
  MBC: 4 µg/mL
  MIC: 4 µg/mL
A. baumannii; A. baumannii F66
  MBC: 4 µg/mL
  MIC: 4 µg/mL
A. baumannii; A. baumannii F67
  MBC: 8 µg/mL
  MIC: 8 µg/mL
A. baumannii; A. baumannii F68
  MBC: 4 µg/mL
  MIC: 4 µg/mL
A. baumannii; A. baumannii F69
  MBC: 8 µg/mL
  MIC: 8 µg/mL
A. baumannii; A. baumannii F70
  MBC: 16 µg/mL
  MIC: 16 µg/mL
A. baumannii; A. baumannii F71
  MBC: 8 µg/mL
  MIC: 8 µg/mL
A. baumannii; A. baumannii KACC 13090
  MBC: 8 µg/mL
  MIC: 8 µg/mL
A. baumannii; A. baumannii KACC 14233
  MBC: 8 µg/mL
  MIC: 8 µg/mL

B2: LNT101: endolysin derived from bacteriophage PBPA90, amino acid sequence SEQ ID NO: 1 (259 aa), purified with 6× His tag (protein)
chain: MGTVLKRGDRGSAVEDLQMKLRVAGYAVSADGIFGGDTEKAVRDFQASKALVVDGKVGPATLAELAKSATVPAKWEAIPFPTANKSRSAAMPTLNAVGAMTGTDSRLLATFASIESAFDYTVKASTSSATGWFQFLDATWDDMIKAHGSKYGIPKDPTRALRKDPRANALMGAEFLKGNAAVLRPVINREPSDTDLYLAHFLGAGGAKKFLSADQKTLGEVLFPKPAKANPSIFSNKGVPRTLAEIYKLFEDKVSKHRA
modifications: 6xHis tag; synthetic_Endolysin LNT101
Gram negative bacterium; 2 μM, 2 hours, 37° C., P. aeruginosa PA01, A. baumannii ATCC 17978, E. coli ATCC 8739, K. pneumoniae ATCC 13883, E. aerogenes CCARM 16006, S. enteritidis ATCC 13076
  killing ability (number of colonies): excellent killing ability compared to the control group
Acinetobacter baumannii; A. baumannii ATCC 2508
  CFU reduction: ◯ (‘◯’ means reduction of 0.5 log CFU or more through the CFU reduction assay)
Acinetobacter baumannii; A. baumannii F4
  CFU reduction: ◯ (‘◯’ means reduction of 0.5 log CFU or more through the CFU reduction assay)
Acinetobacter baumannii; A. baumannii F15
  CFU reduction: ◯ (‘◯’ means reduction of 0.5 log CFU or more through the CFU reduction assay)
